The record followed here is publication doi:10.1101/049148.

Experiment [1] addresses Heh1-VN (budding yeast (endogenously tagged)) (UniProt Q03707). The experiment is described as follows: split reporter.
The target in experiment [2] is Heh2-VN (budding yeast (endogenously tagged)) (UniProt Q03281). The experiment is described as follows: split reporter.
Sequence of UniProt Q03281 (Q03281 whole entry): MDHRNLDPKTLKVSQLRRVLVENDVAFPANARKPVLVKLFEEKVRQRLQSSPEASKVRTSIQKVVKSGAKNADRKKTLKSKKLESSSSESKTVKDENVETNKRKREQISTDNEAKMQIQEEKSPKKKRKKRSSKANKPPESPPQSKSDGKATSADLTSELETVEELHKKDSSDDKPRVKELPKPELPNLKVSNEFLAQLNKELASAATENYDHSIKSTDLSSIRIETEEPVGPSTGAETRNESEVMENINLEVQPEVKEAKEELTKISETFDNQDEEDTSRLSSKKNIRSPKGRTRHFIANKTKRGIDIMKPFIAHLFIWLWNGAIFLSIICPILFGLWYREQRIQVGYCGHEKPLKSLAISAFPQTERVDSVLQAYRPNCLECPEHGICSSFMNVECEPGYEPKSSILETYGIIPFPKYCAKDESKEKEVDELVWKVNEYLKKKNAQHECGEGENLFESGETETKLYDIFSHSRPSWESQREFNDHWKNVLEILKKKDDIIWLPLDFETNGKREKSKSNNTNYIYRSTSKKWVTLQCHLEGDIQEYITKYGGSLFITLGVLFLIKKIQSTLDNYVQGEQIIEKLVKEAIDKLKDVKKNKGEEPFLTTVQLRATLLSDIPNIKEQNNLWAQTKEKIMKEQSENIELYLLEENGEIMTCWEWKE

Sequence of UniProt Q03707 (Q03707 whole entry): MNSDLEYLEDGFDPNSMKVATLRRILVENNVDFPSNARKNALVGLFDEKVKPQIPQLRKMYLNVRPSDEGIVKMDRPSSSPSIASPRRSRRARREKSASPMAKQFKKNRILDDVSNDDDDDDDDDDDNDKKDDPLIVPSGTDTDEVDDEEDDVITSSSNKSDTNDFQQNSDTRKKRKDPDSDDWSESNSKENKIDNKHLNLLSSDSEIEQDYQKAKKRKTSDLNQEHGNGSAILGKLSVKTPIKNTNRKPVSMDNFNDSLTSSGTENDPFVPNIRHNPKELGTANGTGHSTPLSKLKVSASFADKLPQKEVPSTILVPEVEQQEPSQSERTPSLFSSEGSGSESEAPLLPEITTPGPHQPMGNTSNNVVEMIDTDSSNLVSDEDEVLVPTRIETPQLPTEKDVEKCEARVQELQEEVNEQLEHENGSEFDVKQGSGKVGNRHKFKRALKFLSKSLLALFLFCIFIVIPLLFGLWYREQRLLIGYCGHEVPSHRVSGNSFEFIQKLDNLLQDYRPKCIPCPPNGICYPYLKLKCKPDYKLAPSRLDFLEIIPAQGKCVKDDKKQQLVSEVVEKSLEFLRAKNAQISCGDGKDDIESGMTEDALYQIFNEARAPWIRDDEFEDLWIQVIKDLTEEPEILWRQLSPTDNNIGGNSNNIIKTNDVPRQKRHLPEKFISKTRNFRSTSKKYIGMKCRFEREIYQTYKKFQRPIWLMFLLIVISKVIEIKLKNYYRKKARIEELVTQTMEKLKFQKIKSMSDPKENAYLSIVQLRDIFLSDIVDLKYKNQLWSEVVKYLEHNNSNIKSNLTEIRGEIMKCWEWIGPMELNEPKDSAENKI

With Chm7-VC (natural protein), the percent of cells with a BiFC focus in experiment [1] stood at 28%; in experiment [2], 3%.
